For orientation: pIC50 means the IC50 on a negative log10 scale, so that one unit is a factor of ten. Lower therefore signals a high IC50.

pIC50: −log10 of the molar value.

This assay has as its target LFA-1 (lymphocyte function-associated antigen-1), purified heterodimer captured on ELISA plates (human) (UniProt P20701). Description: competition ELISA (LFA-1/ICAM-1-Ig). The following applies: ligand. Background: ELISA stands for enzyme-linked immunosorbent assay.

Sequence of LFA-1 (lymphocyte function-associated antigen-1), purified heterodimer captured on ELISA plates (human) (P20701 26-1170, chain 1 of 2): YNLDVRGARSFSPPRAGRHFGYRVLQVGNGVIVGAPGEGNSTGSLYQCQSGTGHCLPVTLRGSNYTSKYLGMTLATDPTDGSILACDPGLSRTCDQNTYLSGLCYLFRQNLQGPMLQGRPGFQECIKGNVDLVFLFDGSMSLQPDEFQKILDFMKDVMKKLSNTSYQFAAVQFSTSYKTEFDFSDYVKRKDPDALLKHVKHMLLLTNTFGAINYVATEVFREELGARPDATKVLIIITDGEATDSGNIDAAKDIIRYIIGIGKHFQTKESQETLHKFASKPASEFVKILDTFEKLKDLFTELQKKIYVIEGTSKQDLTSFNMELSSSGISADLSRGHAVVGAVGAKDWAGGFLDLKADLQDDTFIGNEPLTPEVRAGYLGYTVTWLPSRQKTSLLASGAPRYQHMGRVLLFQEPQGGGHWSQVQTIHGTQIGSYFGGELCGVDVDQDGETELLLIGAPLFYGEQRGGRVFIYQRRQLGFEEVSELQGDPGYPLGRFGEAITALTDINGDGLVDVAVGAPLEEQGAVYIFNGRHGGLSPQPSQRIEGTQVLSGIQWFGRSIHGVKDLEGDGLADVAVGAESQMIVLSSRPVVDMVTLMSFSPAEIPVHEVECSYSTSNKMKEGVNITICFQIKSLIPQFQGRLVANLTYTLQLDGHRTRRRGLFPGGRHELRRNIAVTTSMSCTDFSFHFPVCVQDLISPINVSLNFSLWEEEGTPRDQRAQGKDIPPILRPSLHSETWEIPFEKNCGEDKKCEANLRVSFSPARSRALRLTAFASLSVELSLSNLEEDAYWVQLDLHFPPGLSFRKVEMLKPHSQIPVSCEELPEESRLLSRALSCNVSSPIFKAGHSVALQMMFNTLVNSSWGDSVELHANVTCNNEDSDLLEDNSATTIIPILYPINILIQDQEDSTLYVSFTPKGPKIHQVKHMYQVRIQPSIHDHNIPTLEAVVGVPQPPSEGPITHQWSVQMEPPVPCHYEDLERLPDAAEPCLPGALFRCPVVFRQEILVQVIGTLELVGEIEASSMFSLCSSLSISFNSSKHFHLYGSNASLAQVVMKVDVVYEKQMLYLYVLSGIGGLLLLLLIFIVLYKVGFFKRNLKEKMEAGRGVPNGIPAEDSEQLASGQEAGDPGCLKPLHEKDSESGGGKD
Sequence of LFA-1 (lymphocyte function-associated antigen-1), purified heterodimer captured on ELISA plates (human) (P05107 23-769, chain 2 of 2, further chain): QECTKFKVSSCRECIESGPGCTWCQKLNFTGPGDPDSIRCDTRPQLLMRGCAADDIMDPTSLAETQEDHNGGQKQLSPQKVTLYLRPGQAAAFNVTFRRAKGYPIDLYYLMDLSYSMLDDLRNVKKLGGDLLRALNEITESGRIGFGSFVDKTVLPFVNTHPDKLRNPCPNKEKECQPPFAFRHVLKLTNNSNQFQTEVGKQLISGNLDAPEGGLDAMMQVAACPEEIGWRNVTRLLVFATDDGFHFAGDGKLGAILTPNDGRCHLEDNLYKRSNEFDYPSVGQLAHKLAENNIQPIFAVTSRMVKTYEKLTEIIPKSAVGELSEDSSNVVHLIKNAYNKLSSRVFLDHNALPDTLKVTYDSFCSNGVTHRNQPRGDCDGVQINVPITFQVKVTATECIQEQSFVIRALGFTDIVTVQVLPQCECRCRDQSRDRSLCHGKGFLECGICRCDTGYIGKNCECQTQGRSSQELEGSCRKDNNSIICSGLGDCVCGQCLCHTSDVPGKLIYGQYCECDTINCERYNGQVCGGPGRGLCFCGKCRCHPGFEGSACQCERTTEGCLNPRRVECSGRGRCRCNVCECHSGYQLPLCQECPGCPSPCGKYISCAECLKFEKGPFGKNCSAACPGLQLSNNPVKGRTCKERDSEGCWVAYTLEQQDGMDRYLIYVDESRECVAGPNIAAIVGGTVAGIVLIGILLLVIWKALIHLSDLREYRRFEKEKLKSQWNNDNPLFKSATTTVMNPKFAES
Sequence of sICAM-1 (soluble ICAM-1) (P05362 28-480): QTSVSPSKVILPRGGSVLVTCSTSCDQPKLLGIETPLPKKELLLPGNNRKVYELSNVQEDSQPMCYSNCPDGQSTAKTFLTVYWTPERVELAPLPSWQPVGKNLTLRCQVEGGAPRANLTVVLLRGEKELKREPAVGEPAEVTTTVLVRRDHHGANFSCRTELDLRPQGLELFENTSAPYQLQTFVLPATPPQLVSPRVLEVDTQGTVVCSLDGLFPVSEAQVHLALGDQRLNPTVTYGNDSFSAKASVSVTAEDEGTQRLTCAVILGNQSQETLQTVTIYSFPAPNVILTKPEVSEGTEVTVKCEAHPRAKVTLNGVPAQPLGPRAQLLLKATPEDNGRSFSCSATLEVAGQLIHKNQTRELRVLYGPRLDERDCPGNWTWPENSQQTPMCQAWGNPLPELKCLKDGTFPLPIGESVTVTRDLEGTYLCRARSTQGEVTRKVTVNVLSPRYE

In the case of “sICAM-1 (soluble ICAM-1) (from UniProt P05362 28-480)”, the pIC50 is 6.54.

Values taken from US20090155176A1.
